Measurements published in publication PMC3202338.

Legend:
[1] = molecular target: Bodipy conjugated IS_helix (Ser-36 mutated to cysteine); test: fluorescence polarisation
[2] = molecular target: mero-CFP-PAcKer [GFP: P42212]; test: other fluorescence titration
[3] = molecular target: alternative design: trunc-WT_IS-2 domain (PAK1 residues 87–137) inserted into CFP with glycine-serine linkers [GFP: P42212]; test: ITC
[4] = molecular target: WT_IS domain (residue 83–137 in full-length PAK1 sequence) (UniProt Q13153); test: ITC
IS_hairpin = test: ITC
IS_helix = test: ITC
CFP-PAcKer [GFP: P42212] = test: ITC

Kd [1] [nM]	Kd [2] [nM]	Kd [3] [nM]	Kd [4] [nM]	Kd (IS_hairpin) [nM]	Kd (IS_helix) [nM]	Kd (CFP-PAcKer [GFP: P42212]) [nM]	Substance
15000	600	1650	4000	2600	1600	400	PAK1 kinase domain (K298R mutant), residues 250–545 (from UniProt Q13153 250-545) (domain or fragment)
–	–	–	–	–	–	3300	PAK1^V127E/S144E (full-length PAK1 stabilized in the 'open' state, kinase dead K298R) (from UniProt Q13153 1-545) (enzyme)
